Data on three substances can be found in paper PMC11847480.

The target in this assay is gp130 (human (endogenous in TF-1)) (UniProt P40189).
Sequence of gp130 (human (endogenous in TF-1)) (P40189 23-918): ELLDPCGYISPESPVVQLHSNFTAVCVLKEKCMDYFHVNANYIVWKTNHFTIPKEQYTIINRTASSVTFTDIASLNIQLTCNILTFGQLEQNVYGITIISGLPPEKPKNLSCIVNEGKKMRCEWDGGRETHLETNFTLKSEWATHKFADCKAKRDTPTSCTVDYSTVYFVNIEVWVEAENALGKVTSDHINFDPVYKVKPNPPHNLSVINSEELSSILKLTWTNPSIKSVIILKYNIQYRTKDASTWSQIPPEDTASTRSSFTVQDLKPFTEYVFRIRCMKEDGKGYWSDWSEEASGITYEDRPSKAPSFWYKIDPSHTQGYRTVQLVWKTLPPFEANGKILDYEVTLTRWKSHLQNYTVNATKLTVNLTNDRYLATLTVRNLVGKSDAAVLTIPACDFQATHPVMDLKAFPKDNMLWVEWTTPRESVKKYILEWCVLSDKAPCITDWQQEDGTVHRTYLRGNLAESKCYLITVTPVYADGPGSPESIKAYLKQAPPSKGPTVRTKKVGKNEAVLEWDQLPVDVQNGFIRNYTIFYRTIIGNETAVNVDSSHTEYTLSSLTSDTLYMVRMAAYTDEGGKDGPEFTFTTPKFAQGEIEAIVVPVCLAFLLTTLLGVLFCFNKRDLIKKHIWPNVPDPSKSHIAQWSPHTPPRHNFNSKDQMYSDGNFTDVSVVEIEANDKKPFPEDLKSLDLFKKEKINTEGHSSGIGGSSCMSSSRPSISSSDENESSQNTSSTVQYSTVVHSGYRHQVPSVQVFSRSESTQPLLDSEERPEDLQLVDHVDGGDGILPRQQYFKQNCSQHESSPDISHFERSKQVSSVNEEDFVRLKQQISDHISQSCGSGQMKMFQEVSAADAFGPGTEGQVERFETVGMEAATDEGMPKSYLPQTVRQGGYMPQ

Sequence of LIF with truncation of the N-terminal region (P15018 23-202): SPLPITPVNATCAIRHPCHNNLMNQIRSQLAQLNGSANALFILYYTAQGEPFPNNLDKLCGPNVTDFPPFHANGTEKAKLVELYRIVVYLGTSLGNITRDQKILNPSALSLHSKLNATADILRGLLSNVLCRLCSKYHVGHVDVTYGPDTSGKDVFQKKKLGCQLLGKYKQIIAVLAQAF

The substance “LIF 2E (R37E and H38E) (from UniProt P15018 23-202) (ligand)” showed a TF-1 cell proliferation, fold change of EC50 against wild-type LIF of 3 fold. Still for that read-out and setting: to “LIF 3E (R37E, H38E and H41E) (from UniProt P15018 23-202) (ligand)” belongs 4 fold.

In turn, “LIF with truncation of the N-terminal region (from UniProt P15018 23-202) (ligand)” yielded a TF-1 cell proliferation activity against wild-type LIF of 1 fold.
